Experiments:
mir-675-5p = experiment: Small-transcript northern blot of mir-675 processing in HEK293 cells; format: cell-based, human; details: for mature mir-675-5p bands on northern blot: HEK293, anti-mir-675-5p biotinylated probe
From the text: Small-Transcript Northern Blots. […] (SEQ ID NO: 148)).

DUX4-mir-675Res = experiment: Western blot against mir-675-resistant DUX4 construct (CMV.DUX4-mir-675Res) in HEK293 cells; format: cell-based, human; details: FIG. 20; blinded western blot
From the text: Sequence Generation and Cloning. All miRNAs used in this study were designed as previously reported in [Wallace et al., Mol. Ther. Methods Clin. Dev. 8:121-130 (2018)]. All miDUX4s were cloned into the mir-30 based/U6 construct as previously described [Wallace et al., Mol. Ther. 20:1417-23 (2012)]. MicroRNA-675 sequence was obtained from the miRBase database (www.mirbase.org), and all mir-675 constructs used in this study were cloned into an expression plasmid downstream of an RNA polymerase III class of promoters (U6 or H1 promoters). The sequence of the stem loop structure of mir-675, mir-675-5p and mir-675-3p constructs is shown in FIG. 17A-B. The CMV.H19 construct was purchased from OriGene. The psi2-DUX4FI was PCR amplified using the AAV.CMV.DUX44V5 construct as template, and the following primers: forward primer: […] (SEQ ID NO: 127), and reverse primer: […] (SEQ ID NO: 128). The PCR product was then cloned into a previously designed psicheck2 (psi2) SD5 mutant (Renilla luciferase have the SD5 mutant) plasmid [Ansseau et al., Plos One 10: e0118813 (2015)] using XhoI/SpeI restriction sites and the psi2.SD5 mutant-DUX4 3′UTR plasmid backbone. […] In addition, this plasmid contains a cytomegalovirus promoter (CMVp)-driven DUX4 full-length sequence encompassing the DUX4 open reading frame (DUX4 ORF), the DUX4 3′UTR sequence (pLAM sequence). […]

B1: U6.mir-675: U6 promoter-driven mir-675 expression plasmid with 40 nt 5' and 47 nt 3' flanking sequences (nucleic acid)
DNA: GACGCCGCCATCTCTAGGCCCGCGCCGGCCCCCTCGCACAGACTTGTGGGAGAAGCTCGGCTACTCCCCTGCCCCGGTTAATTTGCATATAATATTTCCTAGTAACTATAGAGGCTTAATGTGCGATAAAAGACAGATAATCTGTTCTTTTTAATACTAGCTACATTTTACATGATAGGCTTGGATTTCTATAAGAGATACAAATACTAAATTATTATTTTAAAAAACAGCACAAAAGGAAACTCACCCTAACTGTAAAGTAATTGTGTGTTTTGAGACTATAAATATCCCTTGGAGAAAAGCCTTGTTTGCGTTTAGTGAACCGTCAGATGGTACCGTTTAAACTCGAGCCCAGGGTCTGGTGCGGAGAGGGCCCACAGTGGACTTGGTGACGCTGTATGCCCTCACCGCTCAGCCCCTGGGACTAGAGCGGCCGCCACAGCGGGGAGATCCAGACATGATAAGATACATTTTTT
mature mir-675-5p bands on northern blot (mir-675-5p): low levels of the mature mir-675-5p
effect on DUX4 protein level of mir-675-resistant DUX4 construct (DUX4-mir-675Res): not able to reduce DUX4 protein level

B2: H1.mir-675: commercially available H1 promoter mir-675 expression plasmid (SBI Biosciences) (nucleic acid)
DNA: GAACGCTGACGTCATCAACCCGCTCCAAGGAATCGCGGGCCCAGTGTCACTAGGCGGGAACACCCAGCGCGCGTGCGCCCTGGCAGGAAGATGGCTGTGAGGGACAGGGGAGTGGCGCCCTGCAATATTTGCATGTCGCTATGTGTTCTGGGAAATCACCATAAACGTGAAATGTCTTTGGATTTGGGAATCTTATAAGTTCTGTATGAGACCACCCCCCAGGGTCTGGTGCGGAGAGGGCCCACAGTGGACTTGGTGACGCTGTATGCCCTCACCGCTCAGCCCCTGGGGAATTCTTCGATTCTGCTTTTTT
mature mir-675-5p produced at 48h versus 24h post-transfection (mir-675-5p): 1.4 fold
mature mir-675-5p abundance relative to U6.mir-675-generated (mir-675-5p; 24 h post-transfection): 13 fold
mature mir-675-5p abundance relative to U6.mir-675-generated (mir-675-5p; 48 h post-transfection): 23 fold
mature mir-675-5p bands on northern blot (mir-675-5p): abundant levels of the mature mir-675-5p
effect on DUX4 protein level of mir-675-resistant DUX4 construct (DUX4-mir-675Res): not able to reduce DUX4 protein level
